Assay results published in article PMC8205142.

Target: recombinant venestatin (Strongyloides venezuelensis)
Assay: ELISA; r-venestatin (4 ug/mL) coated on wells; RAGE or TLR4 (0-4 ug/mL) in buffer A (50 mM Tris-HCl pH 7, 10 mM NaCl, 5 mM CaCl2), ambient temperature, 1 h; detected with anti-RAGE or anti-TLR4 antibodies; KD by Scatchard plot

recombinant human RAGE (receptor for advanced glycation end products) (from UniProt Q15109 23-342)
Kd: 43.6 nM
